The record followed here is publication PMC10766600.

Experiment [1] has as its target bacteriophage T5 capsid-like particles (T5 CLPs) (bacteriophage T5).
Experiment [2] shares this target. In words: cryo-EM structure; pNO-decorated CLPs, 200 kV Glacios, icosahedral (I4) reconstruction from 10,449 particles, 5.8 Å.

Sequence of pNO: N-terminal capsid-binding domain pN of pb10 fused at its C-terminal end with ovalbumin (Q6QGD6 whole entry, the tested form may be a part): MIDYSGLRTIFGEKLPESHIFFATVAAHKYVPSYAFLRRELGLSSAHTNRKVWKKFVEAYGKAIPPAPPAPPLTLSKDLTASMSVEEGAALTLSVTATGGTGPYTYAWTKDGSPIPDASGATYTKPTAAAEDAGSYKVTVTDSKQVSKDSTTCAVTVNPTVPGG
Sequence of pO: full-length pb10 fused at its C-terminal end with ovalbumin (Q6QGD6 whole entry, the tested form may be a part): as above

With “pNO: N-terminal capsid-binding domain pN of pb10 fused at its C-terminal end with ovalbumin (from UniProt Q6QGD6 1-73)”, in experiment [1], the anti-Ova IgG (ELISA) in sera of C57BL/6 mice after a single subcutaneous injection of CLP-bound pNO against pNO alone, days 14 to 192 post-injection is 1000 fold. The stoichiometry N (copies per capsid) in experiment [2] was 120.

Turning to “pO: full-length pb10 fused at its C-terminal end with ovalbumin (from UniProt Q6QGD6 1-164)”, the anti-Ova IgG (ELISA) in sera of C57BL/6 mice after a single subcutaneous injection of CLP-bound pO against pO alone, days 14 to 192 post-injection in experiment [1] was 1000 fold.
